Source: patent US20170233495A1 (CALYPSO BIOTECH, published 2017)
Like-named read-outs stand apart in the source and are kept apart here.

How the values were obtained:
mouse active MMP9 = mouse active MMP9 (mouse, UniProt P41245 108-730, limits assumed); experiment: cell-based or functional assay
mouse proMMP9 = mouse proMMP9 (mouse, UniProt P41245 20-730); experiment: cell-based or functional assay
[1] = target: Cynomologus monkey (cyno) proMMP9 (Cynomologus monkey); experiment: cell-based or functional assay
rat proMMP9 = rat proMMP9 (rat, UniProt P50282 20-708); experiment: cell-based or functional assay
[2] = target: T1, human MMP9 (i.e. activated MMP9), catalytically active caspase-cleaved recombinant MMP9 (human, UniProt P14780 107-707); experiment: cell-based or functional assay
[3] = target: T2, recombinant human proMMP9 (full length, latent form) (human, UniProt P14780 20-707); experiment: cell-based or functional assay
[4] = target: T3, neutrophil-derived human monomeric MMP9 (human, UniProt P14780 20-707); experiment: cell-based or functional assay
[5] = target: T4, neutrophil-derived human dimeric MMP9 (human, UniProt P14780 20-707); experiment: cell-based or functional assay
[6] = target: T3, neutrophil-derived human monomeric MMP9; experiment: cell-based or functional assay; remark: listed apart in the source
[7] = target: T5, neutrophil-derived human NGAL/MMP9 complex (human, UniProt P80188 21-198); experiment: cell-based or functional assay
[8] = target: T4, neutrophil-derived human dimeric MMP9; experiment: cell-based or functional assay; remark: listed apart in the source
[9] = target: MMP3-activated recombinant human MMP9 (human, UniProt P14780 107-707); experiment: SPR (BIAcore), antibody captured by anti-human Fc, antigen titrated 4.7-150 nM
Experimental: (§1) In a second step, pro-MMP9 or MMP3-activated MMP9 were titrated from 4.7 to 150 nM in 2-fold dilutions.

[10] = target: T2, recombinant human proMMP9 (full length, …); experiment: SPR (BIAcore), antibody captured by anti-human Fc, antigen titrated 4.7-150 nM; SPR (BIAcore), antibody captured by anti-human Fc, pro-MMP9 up to 150 nM; lower bound estimated from <1% binding
Experimental: as §1

[11] = target: T3, neutrophil-derived human monomeric MMP9; experiment: cell-based or functional assay; remark: listed apart in the source
[12] = target: T5, neutrophil-derived human NGAL/MMP9 …; experiment: cell-based or functional assay; remark: listed apart in the source
[13] = target: T1, human MMP9 (i.e. activated MMP9), …; experiment: cell-based or functional assay; remark: listed apart in the source
[14] = target: T4, neutrophil-derived human dimeric MMP9; experiment: cell-based or functional assay; remark: listed apart in the source

mouse active MMP9, sequence (P41245 108-730 limits assumed): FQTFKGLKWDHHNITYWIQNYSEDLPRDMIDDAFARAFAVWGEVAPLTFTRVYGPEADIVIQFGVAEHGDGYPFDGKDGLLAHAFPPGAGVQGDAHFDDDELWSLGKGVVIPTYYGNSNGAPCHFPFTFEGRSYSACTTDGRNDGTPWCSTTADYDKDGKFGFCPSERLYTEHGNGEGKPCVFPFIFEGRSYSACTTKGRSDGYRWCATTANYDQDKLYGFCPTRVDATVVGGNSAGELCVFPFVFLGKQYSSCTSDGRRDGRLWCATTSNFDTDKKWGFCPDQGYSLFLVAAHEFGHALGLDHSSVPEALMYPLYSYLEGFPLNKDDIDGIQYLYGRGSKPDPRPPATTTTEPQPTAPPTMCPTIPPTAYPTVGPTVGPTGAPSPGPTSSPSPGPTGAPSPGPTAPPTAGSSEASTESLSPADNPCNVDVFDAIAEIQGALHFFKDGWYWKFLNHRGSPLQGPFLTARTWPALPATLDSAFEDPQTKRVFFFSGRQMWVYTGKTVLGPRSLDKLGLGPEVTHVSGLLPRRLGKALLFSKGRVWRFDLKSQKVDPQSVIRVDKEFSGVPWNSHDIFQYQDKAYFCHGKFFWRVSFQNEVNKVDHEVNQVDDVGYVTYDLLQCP
mouse proMMP9, sequence (P41245 20-730): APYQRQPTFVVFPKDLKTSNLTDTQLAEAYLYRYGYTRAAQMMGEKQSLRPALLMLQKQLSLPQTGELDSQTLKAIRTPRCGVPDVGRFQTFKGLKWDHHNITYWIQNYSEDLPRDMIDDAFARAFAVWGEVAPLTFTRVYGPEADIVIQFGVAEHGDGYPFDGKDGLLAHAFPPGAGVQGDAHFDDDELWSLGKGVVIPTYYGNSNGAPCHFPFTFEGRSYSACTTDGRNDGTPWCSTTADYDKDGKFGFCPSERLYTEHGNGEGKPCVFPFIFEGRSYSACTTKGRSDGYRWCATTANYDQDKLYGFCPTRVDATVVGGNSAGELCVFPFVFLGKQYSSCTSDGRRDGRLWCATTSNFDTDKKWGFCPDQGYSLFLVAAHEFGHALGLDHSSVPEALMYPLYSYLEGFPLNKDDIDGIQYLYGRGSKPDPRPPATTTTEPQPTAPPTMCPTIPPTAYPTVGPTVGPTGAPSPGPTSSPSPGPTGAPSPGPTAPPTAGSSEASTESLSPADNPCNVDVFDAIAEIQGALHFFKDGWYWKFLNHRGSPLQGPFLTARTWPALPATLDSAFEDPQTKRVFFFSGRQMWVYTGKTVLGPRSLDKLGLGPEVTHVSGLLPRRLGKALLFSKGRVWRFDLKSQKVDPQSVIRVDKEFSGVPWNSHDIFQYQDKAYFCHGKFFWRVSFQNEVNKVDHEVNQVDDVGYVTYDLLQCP
T1 sequence (P14780 107-707): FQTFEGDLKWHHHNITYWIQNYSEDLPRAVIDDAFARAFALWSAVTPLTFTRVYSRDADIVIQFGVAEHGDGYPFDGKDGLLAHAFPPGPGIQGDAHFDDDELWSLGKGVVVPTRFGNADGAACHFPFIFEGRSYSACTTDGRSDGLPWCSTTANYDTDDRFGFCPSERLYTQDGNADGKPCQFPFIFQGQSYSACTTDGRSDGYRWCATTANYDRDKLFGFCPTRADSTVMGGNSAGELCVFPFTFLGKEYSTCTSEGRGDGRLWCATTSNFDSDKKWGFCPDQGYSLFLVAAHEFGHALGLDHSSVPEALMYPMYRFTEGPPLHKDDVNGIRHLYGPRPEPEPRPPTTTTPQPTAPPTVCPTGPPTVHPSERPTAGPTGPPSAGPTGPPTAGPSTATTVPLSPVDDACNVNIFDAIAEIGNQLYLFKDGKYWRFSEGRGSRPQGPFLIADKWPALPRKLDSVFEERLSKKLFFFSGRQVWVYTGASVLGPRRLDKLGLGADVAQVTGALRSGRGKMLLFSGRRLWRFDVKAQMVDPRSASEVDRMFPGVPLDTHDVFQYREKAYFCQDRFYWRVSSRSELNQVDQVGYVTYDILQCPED
T4 sequence (P14780 20-707): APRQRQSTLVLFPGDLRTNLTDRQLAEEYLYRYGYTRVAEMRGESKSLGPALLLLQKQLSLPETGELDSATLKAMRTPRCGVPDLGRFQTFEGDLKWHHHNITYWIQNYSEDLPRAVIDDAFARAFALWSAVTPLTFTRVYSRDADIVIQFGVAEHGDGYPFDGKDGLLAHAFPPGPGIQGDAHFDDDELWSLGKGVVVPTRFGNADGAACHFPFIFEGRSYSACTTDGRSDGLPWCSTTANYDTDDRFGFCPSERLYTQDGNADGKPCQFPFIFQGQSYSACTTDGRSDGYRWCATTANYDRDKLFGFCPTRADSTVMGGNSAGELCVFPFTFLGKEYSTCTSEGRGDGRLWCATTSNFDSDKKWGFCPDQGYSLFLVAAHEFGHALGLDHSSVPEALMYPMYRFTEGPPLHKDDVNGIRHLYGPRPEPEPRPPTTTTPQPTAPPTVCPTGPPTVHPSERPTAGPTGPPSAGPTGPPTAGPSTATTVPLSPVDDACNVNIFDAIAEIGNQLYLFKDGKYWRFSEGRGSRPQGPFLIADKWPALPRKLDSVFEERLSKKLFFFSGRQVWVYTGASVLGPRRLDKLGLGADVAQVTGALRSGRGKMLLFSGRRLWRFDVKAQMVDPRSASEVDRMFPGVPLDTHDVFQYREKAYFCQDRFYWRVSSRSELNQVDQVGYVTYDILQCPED
T5 sequence (chain, as listed by the source limits assumed, chain 1 of 2): as the sequence (P14780 20-707) above
T5 sequence (P80188 21-198 limits assumed, chain 2 of 2): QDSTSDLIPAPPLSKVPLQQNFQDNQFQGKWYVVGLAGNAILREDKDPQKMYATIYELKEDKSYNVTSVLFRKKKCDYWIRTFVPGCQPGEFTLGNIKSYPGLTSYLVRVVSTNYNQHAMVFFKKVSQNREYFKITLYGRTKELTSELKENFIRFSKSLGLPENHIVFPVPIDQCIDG
T2 sequence (P14780 20-707): as the sequence (P14780 20-707) above
T3 sequence (P14780 20-707): as above
rat proMMP9, sequence (P50282 20-708): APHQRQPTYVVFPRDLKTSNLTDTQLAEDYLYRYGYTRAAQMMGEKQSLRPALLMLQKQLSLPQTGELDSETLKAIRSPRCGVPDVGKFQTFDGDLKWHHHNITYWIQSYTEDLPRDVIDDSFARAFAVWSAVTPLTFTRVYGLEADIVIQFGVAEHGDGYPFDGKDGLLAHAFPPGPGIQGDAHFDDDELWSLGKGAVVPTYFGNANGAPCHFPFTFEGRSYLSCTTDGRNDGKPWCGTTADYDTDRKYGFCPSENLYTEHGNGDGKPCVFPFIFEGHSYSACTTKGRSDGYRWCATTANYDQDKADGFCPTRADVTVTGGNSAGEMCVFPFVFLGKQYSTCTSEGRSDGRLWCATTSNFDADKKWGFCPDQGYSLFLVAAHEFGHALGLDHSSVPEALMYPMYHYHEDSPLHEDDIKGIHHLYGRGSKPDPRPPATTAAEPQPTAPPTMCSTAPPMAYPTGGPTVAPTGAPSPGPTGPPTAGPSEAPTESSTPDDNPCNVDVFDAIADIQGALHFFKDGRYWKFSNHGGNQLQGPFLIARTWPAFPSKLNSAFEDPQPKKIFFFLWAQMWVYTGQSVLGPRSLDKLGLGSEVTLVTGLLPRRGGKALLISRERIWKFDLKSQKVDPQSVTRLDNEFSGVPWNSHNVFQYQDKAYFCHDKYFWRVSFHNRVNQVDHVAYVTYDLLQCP
MMP3-activated recombinant human MMP9, sequence (P14780 107-707): as the sequence (P14780 107-707) above

Row | Binder | Efficacy, MMP9 gelatin assay (mouse active MMP9) [%] | IC50 (nM), MMP9 gelatin assay (mouse active MMP9) [nM] | Efficacy, MMP3/MMP9 gelatin assay (mouse proMMP9) [%] | IC50 (nM), MMP3/MMP9 gelatin assay (mouse proMMP9) [nM] | Efficacy, MMP3/MMP9 gelatin assay [1] [%] | IC50 (nM), MMP3/MMP9 gelatin assay [1] [nM] | Efficacy, MMP3/MMP9 gelatin assay (rat proMMP9) [%] | IC50 (nM), MMP3/MMP9 gelatin assay (rat proMMP9) [nM] | Efficacy, DQ-gelatin digestion, MMP9 assay [2] [%] | IC50 (nM), DQ-gelatin digestion, MMP9 assay [2] [nM] | Efficacy, DQ-gelatin digestion, MMP3/MMP9 assay [3] [%] | IC50 (nM), DQ-gelatin digestion, MMP3/MMP9 assay [3] [nM] | further results
1 | F20-VH-GL1/B03-VL-GL1c (antibody, human IgG4, V domains shown) VH: EVQLVESGGGLVQPGRSLRLSCAASGFTFNDYPMHWVRQAPGKGLEWVSGISSNSGSVGYADSVKGRFTISRDNAKNSLYLQMNSLRAEDTALYYCARDKIYYGSGSYDFYYYYGMDVWGQGTTVTVSS VL: SSELTQDPAVSVALGQTVRITCQGDSLRSYYASWYQQKPGQAPVVVIYGKNNRPSGIPDRFSGSSSGNTVSLTITGAQAEDEADYYCQSRDNIGNHRVVLFGGGTKLTVL | 100 | 333 | 25 | 38.8 | 100 | 3.85 | 100 | 4.99 | 100 | 1.92 | 100 | 9.05 | 
2 | F20-VH-GL1-V4-V9-V14/B03-VL-GL1c (antibody, human IgG4 S228P, V domains shown) VH: EVQLVESGGGLVQPGRSLRLSCAASGFTFNDYPMHWVRQAPGKGLEWVSGISSRSGSVGYAESVKGRFTISRDNAKNSLYLQMNSLRAEDTALYYCARDKIYYGSGSYDFYYYYGIDVWGQGTTVTVSS VL: SSELTQDPAVSVALGQTVRITCQGDSLRSYYASWYQQKPGQAPVVVIYGKNNRPSGIPDRFSGSSSGNTVSLTITGAQAEDEADYYCQSRDNIGNHRVVLFGGGTKLTVL | 100 | 164 | 100 | 462 | 100 | 3.75 | 100 | 2.83 | 100 | 1.3 | 100 | 5.48 | 
3 | F20-VH-GL1-V4-V9/B08-VL-GL6c (antibody, human IgG4 S228P, V domains shown, The light chain constant region is not tied to it; also called F20-VH/B08-VLc variant; F20-VH/B08-VLc) VH: EVQLVESGGGLVQPGRSLRLSCAASGFTFNDYPMHWVRQAPGKGLEWVSGISSRSGSVGYAESVKGRFTISRDNAKNSLYLQMNSLRAEDTALYYCARDKIYYGSGSYDFYYYYGMDVWGQGTTVTVSS VL: QSALTQPASVSGSPGQSITISCTGTSNDVGAYNRVSWYQQHPGKAPKLMIYGVSNRPSGVSNRFSGSKSGNTASLTISGLQAEDEADFYCTSYSSSTTSYVVFGGGTKVTVL | 100 | 1.27 | 100 | 7.8 | 100 | 5.86 | 100 | 3.16 | 100 | 0.97 | 100 | 9.52 | IC50 (read off the curve) [4]: ~10 nM; IC50 (read off the curve) [5]: ~10 nM; IC50 (read off the curve) [6]: ~2 nM; IC50 (read off the curve) [7]: ~2 nM; IC50 (read off the curve) [8]: ~0.5 nM; Kd [9]: 11.7 nM; Kd [10]: > 15000 nM; efficacy of inhibition, MMP3/MMP9 assay with neutrophil-derived MMP9 [11]: 100%; efficacy of neutralisation, APMA-activated neutrophil-derived MMP9, OmniMMP RED cleavage [11]: 100%; efficacy of inhibition, MMP3/MMP9 assay with neutrophil-derived MMP9 [12]: 100%; efficacy of neutralisation, APMA-activated neutrophil-derived MMP9, OmniMMP RED cleavage [12]: 100%; IC50, DQ-gelatin digestion, MMP9 assay with highly purified activated MMP9 [13]: 2.6 nM; efficacy of inhibition, MMP3/MMP9 assay with neutrophil-derived MMP9 [14]: 100%; efficacy of neutralisation, APMA-activated neutrophil-derived MMP9, OmniMMP RED cleavage [14]: 100%
4 | F20-VH-GL1/B08-VL-GL6c (antibody, human IgG4, V domains shown) VH: EVQLVESGGGLVQPGRSLRLSCAASGFTFNDYPMHWVRQAPGKGLEWVSGISSNSGSVGYADSVKGRFTISRDNAKNSLYLQMNSLRAEDTALYYCARDKIYYGSGSYDFYYYYGMDVWGQGTTVTVSS VL: QSALTQPASVSGSPGQSITISCTGTSNDVGAYNRVSWYQQHPGKAPKLMIYGVSNRPSGVSNRFSGSKSGNTASLTISGLQAEDEADFYCTSYSSSTTSYVVFGGGTKVTVL | 100 | 0.86 | 100 | 7.91 | 100 | 29.9 | 100 | 17.4 | 100 | 3.92 | 100 | 44 | 
